Test results as given in US20200291391A1, “CROSS-LINKED EPITOPES AND METHODS OF USE THEREOF” (Indi Molecular, Inc., priority 2019, published 2020).

Molecular target: human CD8α/β (human), P01732
Assay: ELISA on CD8αβ

human CD8α/β (human), P01732, sequence (P01732 22-182, chain 1 of 2): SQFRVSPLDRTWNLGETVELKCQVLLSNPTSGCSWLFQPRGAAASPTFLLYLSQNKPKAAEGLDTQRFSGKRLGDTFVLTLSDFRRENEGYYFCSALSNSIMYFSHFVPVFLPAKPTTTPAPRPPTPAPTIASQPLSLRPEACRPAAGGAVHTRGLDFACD
human CD8α/β (human), P01732, sequence (P10966 22-170, chain 2 of 2, further chain): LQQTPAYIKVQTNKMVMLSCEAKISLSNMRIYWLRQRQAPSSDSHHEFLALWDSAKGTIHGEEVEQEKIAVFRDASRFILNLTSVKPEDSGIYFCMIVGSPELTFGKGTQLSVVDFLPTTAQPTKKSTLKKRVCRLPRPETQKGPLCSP

- EC50: 6 µM
Binder: KHYTN (modifications not checked) [khytn (SEQ ID NO:82)]
